Reference: the supplement of paper PMC12783771
± gives the standard deviation of the averaged measurements.

B1: library; a variant is named by its letters at X, in order (parent)
chain: MNIQIGELAKRTACPVVTIRFYEQEGLLPPPGRSRGNFRLYGEEHVERLQFIRHCRSLDMPLSXVRTLLSYRKRPDQDCGEVXMLLDEHXRQVESRIGALLELXHXLVELREACSGARPAQSCGILQGLSDCVCDTRGTTAHXSD

Tests used:
[1] = variants of: B1; experiment: sfGFP reporter fluorescence (15 h) (µM FITC); higher = higher leak; conditions: library round: Round 3b; ligand: none
Description: (§1)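 Cell-free biosensing: 1 µL Echo-assembled CFE reactions with linear PbrR variant templates (5 nM) and pPbrR-sfGFP reporter, with 1 µM Pb, 30 µM Zn or no ligand; endpoint sfGFP fluorescence after 15 h at 30 °C calibrated as µM FITC. Round 3b rational combinatorial PbrR mutants; 3 biological replicates.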

[2] = variants of: B1; experiment: sfGFP reporter fluorescence (15 h) (µM FITC); higher = stronger transcriptional activation; conditions: library round: Round 3b
Description: as §1

Variant	sfGFP reporter fluorescence [1]	sfGFP reporter fluorescence ([2]; ligand: 1 µM Pb)	sfGFP reporter fluorescence ([2]; ligand: 30 µM Zn)
MNIQIGELAKRTACPVVTIRFYEQEGLLPPPGRSRGNFRLYGEEHVERLQFIRHCRSLDMPLSDVRTLLSYRKRPDQDCGEVIMLLDEHARQVESRIGALLELKHALVELREACSGARPAQSCGILQGLSDCVCDTRGTTAHRSD [DIAKAR]	0.0442 ± 0.0031	0.0673 ± 0.0063	0.045 ± 0.0015
MNIQIGELAKRTACPVVTIRFYEQEGLLPPPGRSRGNFRLYGEEHVERLQFIRHCRSLDMPLSKVRTLLSYRKRPDQDCGEVIMLLDEHARQVESRIGALLELKHALVELREACSGARPAQSCGILQGLSDCVCDTRGTTAHRSD [KIAKAR]	0.0603 ± 0.0029	0.794 ± 0.049	0.0642 ± 0.0027
MNIQIGELAKRTACPVVTIRFYEQEGLLPPPGRSRGNFRLYGEEHVERLQFIRHCRSLDMPLSDVRTLLSYRKRPDQDCGEVIMLLDEHARQVESRIGALLELKHALVELREACSGARPAQSCGILQGLSDCVCDTRGTTAHTSD [DIAKAT]	0.0356 ± 0.0029	0.0683 ± 0.0046	0.0346
MNIQIGELAKRTACPVVTIRFYEQEGLLPPPGRSRGNFRLYGEEHVERLQFIRHCRSLDMPLSKVRTLLSYRKRPDQDCGEVIMLLDEHARQVESRIGALLELKHALVELREACSGARPAQSCGILQGLSDCVCDTRGTTAHTSD [KIAKAT]	0.0563 ± 0.006	0.675 ± 0.061	0.0628 ± 0.0018
MNIQIGELAKRTACPVVTIRFYEQEGLLPPPGRSRGNFRLYGEEHVERLQFIRHCRSLDMPLSKVRTLLSYRKRPDQDCGEVIMLLDEHARQVESRIGALLELKHELVELREACSGARPAQSCGILQGLSDCVCDTRGTTAHPSD [KIAKEP]	0.052 ± 0.0034	0.387 ± 0.02	0.051 ± 0.0007
MNIQIGELAKRTACPVVTIRFYEQEGLLPPPGRSRGNFRLYGEEHVERLQFIRHCRSLDMPLSDVRTLLSYRKRPDQDCGEVIMLLDEHARQVESRIGALLELKHELVELREACSGARPAQSCGILQGLSDCVCDTRGTTAHRSD [DIAKER]	0.0433 ± 0.0047	0.0512 ± 0.0021	0.0452 ± 0.0035
MNIQIGELAKRTACPVVTIRFYEQEGLLPPPGRSRGNFRLYGEEHVERLQFIRHCRSLDMPLSKVRTLLSYRKRPDQDCGEVIMLLDEHARQVESRIGALLELKHELVELREACSGARPAQSCGILQGLSDCVCDTRGTTAHRSD [KIAKER]	0.0554 ± 0.0012	0.614 ± 0.024	0.0592 ± 0.0041
MNIQIGELAKRTACPVVTIRFYEQEGLLPPPGRSRGNFRLYGEEHVERLQFIRHCRSLDMPLSDVRTLLSYRKRPDQDCGEVIMLLDEHARQVESRIGALLELKHELVELREACSGARPAQSCGILQGLSDCVCDTRGTTAHTSD [DIAKET]	0.0419 ± 0.00078	0.0472 ± 0.0015	0.0466 ± 0.0026
MNIQIGELAKRTACPVVTIRFYEQEGLLPPPGRSRGNFRLYGEEHVERLQFIRHCRSLDMPLSKVRTLLSYRKRPDQDCGEVIMLLDEHARQVESRIGALLELKHELVELREACSGARPAQSCGILQGLSDCVCDTRGTTAHTSD [KIAKET]	0.0531 ± 0.0032	0.4674 ± 0.0044	0.057 ± 0.0063
MNIQIGELAKRTACPVVTIRFYEQEGLLPPPGRSRGNFRLYGEEHVERLQFIRHCRSLDMPLSKVRTLLSYRKRPDQDCGEVIMLLDEHARQVESRIGALLELKHHLVELREACSGARPAQSCGILQGLSDCVCDTRGTTAHRSD [KIAKHR]	0.072 ± 0.002	1.07 ± 0.074	0.135 ± 0.017
MNIQIGELAKRTACPVVTIRFYEQEGLLPPPGRSRGNFRLYGEEHVERLQFIRHCRSLDMPLSKVRTLLSYRKRPDQDCGEVIMLLDEHARQVESRIGALLELKHHLVELREACSGARPAQSCGILQGLSDCVCDTRGTTAHTSD [KIAKHT]	0.0693 ± 0.0034	0.93 ± 0.043	0.152 ± 0.011
MNIQIGELAKRTACPVVTIRFYEQEGLLPPPGRSRGNFRLYGEEHVERLQFIRHCRSLDMPLSDVRTLLSYRKRPDQDCGEVIMLLDEHARQVESRIGALLELTHALVELREACSGARPAQSCGILQGLSDCVCDTRGTTAHPSD [DIATAP]	0.0413 ± 0.0051	0.087 ± 0.01	0.0433 ± 0.0057
MNIQIGELAKRTACPVVTIRFYEQEGLLPPPGRSRGNFRLYGEEHVERLQFIRHCRSLDMPLSKVRTLLSYRKRPDQDCGEVIMLLDEHARQVESRIGALLELTHALVELREACSGARPAQSCGILQGLSDCVCDTRGTTAHPSD [KIATAP]	0.0703 ± 0.0043	1.26 ± 0.096	0.0679 ± 0.006
MNIQIGELAKRTACPVVTIRFYEQEGLLPPPGRSRGNFRLYGEEHVERLQFIRHCRSLDMPLSDVRTLLSYRKRPDQDCGEVIMLLDEHARQVESRIGALLELTHALVELREACSGARPAQSCGILQGLSDCVCDTRGTTAHRSD [DIATAR]	0.0427 ± 0.0029	0.0781 ± 0.014	0.0423 ± 0.0034
